Biological target: T1, Glut1 (accession number: NP_006507) WT, HA-tagged (UniProt P11166 1-492)
T1 construct: Expressed in THP-1 cells from a plasmid; Detected in the pull-down by anti-HA Western blot; also called WT Glut1; Glut-HA; not shown: HA tag
T1 sequence (looked up): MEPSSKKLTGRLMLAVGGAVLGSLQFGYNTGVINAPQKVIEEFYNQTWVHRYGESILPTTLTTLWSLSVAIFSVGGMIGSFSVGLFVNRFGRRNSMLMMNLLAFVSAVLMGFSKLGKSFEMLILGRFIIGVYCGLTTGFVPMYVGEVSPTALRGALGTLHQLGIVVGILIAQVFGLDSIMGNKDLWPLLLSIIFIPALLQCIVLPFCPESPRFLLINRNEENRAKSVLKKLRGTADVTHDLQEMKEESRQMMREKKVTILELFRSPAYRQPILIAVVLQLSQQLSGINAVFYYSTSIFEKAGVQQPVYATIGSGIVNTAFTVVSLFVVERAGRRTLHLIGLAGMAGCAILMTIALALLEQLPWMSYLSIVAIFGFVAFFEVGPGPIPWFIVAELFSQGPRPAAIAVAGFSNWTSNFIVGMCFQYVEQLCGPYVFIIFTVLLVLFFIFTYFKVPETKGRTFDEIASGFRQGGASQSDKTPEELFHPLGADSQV
Assay: Strep pull-down from THP-1 cell extract, anti-HA Western blot
Description: THP-1 cell line was transfected with expression plasmids for TM4SF5-Strep (control vector, WT, N-Glycosylation-deficient mutant; N138A/N155Q), Palmitoylation-deficient mutant (C2/6/9/75/76/80/81/85/189A), Glut1 (accession number: NP_006507) WT, Glut1 K38A, and Glut1 E329Q, and after 48 hours, cell extracts were obtained. The binding of TM4SF5 and Glut1 was confirmed by Western blotting of Glut-HA using an anti-HA antibody by pulling-down with strepavidin agarose resin (Thermo Fisher Scientific).

B1: TM4SF5-Strep N-Glycosylation-deficient mutant N138A/N155Q (other, human, UniProt O14894 1-197, looked up)
chain: MCTGKCARCVGLSLITLCLVCIVANALLLVPNGETSWTNTNHLSLQVWLMGGFIGGGLMVLCPGIAAVRAGGKGCCGAGCCGNRCRMLRSVFSSAFGVLGAIYCLSVSGAGLRNGPRCLMNGEWGYHFEDTAGAYLLARTLWDRCEAPPRVVPWQVTLFSLLVAASCLEIVLCGIQLVNATIGVFCGDCRKKQDTPH
notes: Expressed in THP-1 cells and pulled down from the cell extract with streptavidin agarose; not shown: Strep tag
Q: Does B1 bind?
A: no binding
